± gives the uncertainty stated by the source.

This is an account of results in the supplement of paper PMC7877785.

This data set in a line: self-splicing fitness, log relative to wild type (ln ratio); higher = more splicing; Tetrahymena group I intron in knt gene, E. coli kanamycin selection, DiMSum; sequences stand for … in CUCUCU…GGAGGGAAAAGUUAUCAGGCAUGCACCUGGUAGCUAGUCUUUAAACCAAUAGAUUGCAUCGGUUUAAAAGGCAAGACCGUCAAAUUGCGGGAAAGGGGUCAACAGCCGUUCAGUACCAAGUCUCAGGGGAAACUUUGAGAUGGCCUUGCAAAGGGUAUGGUAAUAAGCUGACGGACAUGGUCCUAACCACGCAGCCAAGUCCUAAGUCAACAGAUCUUCUGUUGAUAUGGAUGCAGUUCACAGACUAAAUGUCGGUCGGGGAAGAUGUAUUCUUCUCAUAAGAUAUAGUCGGACCUCUCCUUAAUGGGAGCUAGCGGAUGAAGUGAUGCAACACUGGAGCCGCUGGGAACUAAUUUGUAUGCGAAAGUAUAUUGAUUAGUUUUGGAGUACUCGUGGUCG
An outline of the steps: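 A randomised library covering all eight P1ex-region intron nucleotides was built with the intron in the knt kanamycin-resistance gene on pET-22b(+) and held in E. coli BL21(DE3). Cells were grown overnight at 37°C or 30°C on LB agar, with or without 25 μg/mL kanamycin, plus 100 μg/mL carbenicillin, 50 μM IPTG and 0.2% rhamnose, and pooled colonies were amplicon-sequenced on an Illumina HiSeq 2500. DiMSum fitness is the error-weighted combination of wild-type-normalised replicate fold changes, kanamycin versus none.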

UCUCAGCAAUAUUACGCGAA: the “self-splicing fitness (ln)” value is, setting by setting: (30 °C) -2.12 ± 0.17; (37 °C) -1.85 ± 0.21. As for UCUCAGCAAUAUUACGCUCA, the “self-splicing fitness (ln)” value (37 °C) was -1.48 ± 0.43. Take UCUCAGCAAUAUUACGCUGC: the “self-splicing fitness (ln)” value (30 °C) was -3.83 ± 0.21 and the “self-splicing fitness (ln)” value (37 °C) is -2.06 ± 0.17. As to UCUCAGCAAUAUUACGCUUG, the “self-splicing fitness (ln)” value by setting is: (30 °C) -3.17 ± 0.16; (37 °C) -3.32 ± 0.33.

Take UCUCAGCAAUAUUACGCUUU: the “self-splicing fitness (ln)” value is -3.09 ± 0.3 (30 °C) and -2.22 ± 0.31 (37 °C). The matching figures for UCUCAGCAAUAUUACGGCAA: -2.86 ± 0.25 and -2.44 ± 0.17. The matching figures for UCUCAGCAAUAUUACGGGGG: -3.53 ± 0.27 and -2.02 ± 0.2. The matching figures for UCUCAGCAAUAUUACGGUAA: -2.11 ± 0.14 and -1.02 ± 0.12.

Take UCUCAGCAAUAUUACGGUCU: the “self-splicing fitness (ln)” value is -3.23 ± 0.2 (30 °C) and -1.74 ± 0.15 (37 °C). On the same counts, the results for UCUCAGCAAUAUUACGUCAA are -3.21 ± 0.27 and -2.35 ± 0.21. On the same counts, the results for UCUCAGCAAUAUUACGUCAC are -3.75 ± 0.19 and -2.55 ± 0.17. With UCUCAGCAAUAUUACGUCCA, the “self-splicing fitness (ln)” value is -2.72 ± 0.16 (30 °C) and -1.35 ± 0.2 (37 °C). On the same counts, the results for UCUCAGCAAUAUUACGUCGC are -2.22 ± 0.23 and -2.47 ± 0.33. The matching figures for UCUCAGCAAUAUUACGUGCA: -0.751 ± 0.065 and -0.0852 ± 0.071.

As for UCUCAGCAAUAUUACGUGCU, the “self-splicing fitness (ln)” value is, setting by setting: (30 °C) -4.22 ± 0.23; (37 °C) -2.61 ± 0.2. The matching figures for UCUCAGCAAUAUUACGUGGC: -3.61 ± 0.31 and -2.55 ± 0.28. On the same counts, the results for UCUCAGCAAUAUUACGUGUC are -3.41 ± 0.14 and -3.2 ± 0.17.

UCUCAGCAAUAUUACGUUCG: the “self-splicing fitness (ln)” value reads like this: (30 °C) -3.46 ± 0.2; (37 °C) -2.28 ± 0.25. Turning to UCUCAGCAAUAUUACGUUGA, the “self-splicing fitness (ln)” value by setting is: (30 °C) -2.9 ± 0.2; (37 °C) -2.93 ± 0.24. On the same counts, the results for UCUCAGCAAUAUUACGUUGU are -3.71 ± 0.21 and -3.39 ± 0.21. The matching figures for UCUGAGCAAUAUUACGAACA: -3.18 ± 0.34 and -3.46 ± 0.35. On the same counts, the results for UCUGAGCAAUAUUACGAGAU are -3.79 ± 0.37 and -2.48 ± 0.3. Take UCUGAGCAAUAUUACGAGUU: the “self-splicing fitness (ln)” value (30 °C) was -2.13 ± 0.25. In the case of UCUGAGCAAUAUUACGAUAA, the “self-splicing fitness (ln)” value (37 °C) is -2.05 ± 0.43. UCUGAGCAAUAUUACGAUUA: the “self-splicing fitness (ln)” value (30 °C) was -1.85 ± 0.17 and the “self-splicing fitness (ln)” value (37 °C) was -1.49 ± 0.21.

Consider UCUGAGCAAUAUUACGCUAC, for which the “self-splicing fitness (ln)” value is -3.66 ± 0.3 (30 °C) and -3.09 ± 0.47 (37 °C). On the same counts, the results for UCUGAGCAAUAUUACGCUCG are -3.7 ± 0.37 and -0.349 ± 0.23. As to UCUGAGCAAUAUUACGCUCU, under “30 °C”, the “self-splicing fitness (ln)” value is -2.96 ± 0.46. In the case of UCUGAGCAAUAUUACGGAAU, the “self-splicing fitness (ln)” value reads like this: (30 °C) -3.33 ± 0.34; (37 °C) -1.88 ± 0.27. With UCUGAGCAAUAUUACGGGAC, the “self-splicing fitness (ln)” value (30 °C) was -2.86 ± 0.4 and the “self-splicing fitness (ln)” value (37 °C) is -2.37 ± 0.23. For UCUGAGCAAUAUUACGGUCG, the “self-splicing fitness (ln)” value (30 °C) is -4.19 ± 0.33 and the “self-splicing fitness (ln)” value (37 °C) is -2.67 ± 0.28.

Regarding UCUGAGCAAUAUUACGUAAA, the “self-splicing fitness (ln)” value reads like this: (30 °C) -3.29 ± 0.19; (37 °C) -1.69 ± 0.18. The matching figures for UCUGAGCAAUAUUACGUAGA: -0.966 ± 0.1 and -0.205 ± 0.14.

As for UCUGAGCAAUAUUACGUAUC, the “self-splicing fitness (ln)” value (30 °C) was -3.62 ± 0.25 and the “self-splicing fitness (ln)” value (37 °C) was -1.69 ± 0.25. The matching figures for UCUGAGCAAUAUUACGUGGG: -2.78 ± 0.14 and -0.918 ± 0.11. On the same counts, the results for UCUUAGCAAUAUUACGAACU are -2.7 ± 0.36 and -1.84 ± 0.25. Regarding UCUUAGCAAUAUUACGAAGA, the “self-splicing fitness (ln)” value runs as follows: (30 °C) -3.02 ± 0.49; (37 °C) -2.64 ± 0.38.

As to UCUUAGCAAUAUUACGAAUG, the “self-splicing fitness (ln)” value is -2.87 ± 0.43 (30 °C) and -2.01 ± 0.38 (37 °C). UCUUAGCAAUAUUACGAGAC: the “self-splicing fitness (ln)” value (30 °C) is -2.23 ± 0.25. Turning to UCUUAGCAAUAUUACGAGUA, the “self-splicing fitness (ln)” value is -0.787 ± 0.26 (30 °C) and -1.19 ± 0.27 (37 °C). As for UCUUAGCAAUAUUACGAUGC, the “self-splicing fitness (ln)” value (30 °C) was -2.66 ± 0.3. As for UCUUAGCAAUAUUACGAUUG, the “self-splicing fitness (ln)” value reads like this: (30 °C) -2.74 ± 0.22; (37 °C) -1.23 ± 0.18. For the sequence UCUUAGCAAUAUUACGCCUC, for the setting “37 °C”, the “self-splicing fitness (ln)” value was -2.31 ± 0.45. In the case of UCUUAGCAAUAUUACGCGUC, for the setting “30 °C”, the “self-splicing fitness (ln)” value was -4.03 ± 0.33. On to UCUUAGCAAUAUUACGCUAU, for which the “self-splicing fitness (ln)” value runs as follows: (30 °C) -4.16 ± 0.25; (37 °C) -2.03 ± 0.18. On the same counts, the results for UCUUAGCAAUAUUACGGCUA are -2.85 ± 0.41 and -2.34 ± 0.42. With UCUUAGCAAUAUUACGGCUG, the “self-splicing fitness (ln)” value reads like this: (30 °C) -2.71 ± 0.28; (37 °C) 0.118 ± 0.24. On the same counts, the results for UCUUAGCAAUAUUACGUAAA are -3.58 ± 0.29 and -2.38 ± 0.25. The matching figures for UCUUAGCAAUAUUACGUAGU: -2.27 ± 0.13 and -1.35 ± 0.14. On the same counts, the results for UCUUAGCAAUAUUACGUCUG are -2.67 ± 0.22 and -2.95 ± 0.37. With UCUUAGCAAUAUUACGUCUU, the “self-splicing fitness (ln)” value by setting is: (30 °C) -3.21 ± 0.32; (37 °C) -3 ± 0.27. On the same counts, the results for UCUUAGCAAUAUUACGUGAA are -1.9 ± 0.2 and -2.82 ± 0.43. For UCUUAGCAAUAUUACGUUCC, the “self-splicing fitness (ln)” value (30 °C) is -3.4 ± 0.3. For UGAAAGCAAUAUUACGAAAA, the “self-splicing fitness (ln)” value is, setting by setting: (30 °C) -2.53 ± 0.23; (37 °C) -1.14 ± 0.16. For UGAAAGCAAUAUUACGAAGA, the “self-splicing fitness (ln)” value was -2.23 ± 0.3 (30 °C) and -0.283 ± 0.19 (37 °C). Consider UGAAAGCAAUAUUACGACCG, for which the “self-splicing fitness (ln)” value runs as follows: (30 °C) -0.0402 ± 0.16; (37 °C) 0.0392 ± 0.2.

With UGAAAGCAAUAUUACGACGC, the “self-splicing fitness (ln)” value was -2.04 ± 0.19 (30 °C) and 0.0256 ± 0.17 (37 °C). In the case of UGAAAGCAAUAUUACGAGAC, the “self-splicing fitness (ln)” value (37 °C) was -1.65 ± 0.38. For UGAAAGCAAUAUUACGAUCG, the “self-splicing fitness (ln)” value is -0.144 ± 0.15 (30 °C) and 0.0927 ± 0.17 (37 °C).

On to UGAAAGCAAUAUUACGCAUG, for which the “self-splicing fitness (ln)” value is, setting by setting: (30 °C) -0.902 ± 0.079; (37 °C) -0.484 ± 0.091. The matching figures for UGAAAGCAAUAUUACGCGAC: -2.33 ± 0.42 and -2.08 ± 0.38. Consider UGAAAGCAAUAUUACGCGAG, for which the “self-splicing fitness (ln)” value was -1.63 ± 0.11 (30 °C) and -0.0143 ± 0.1 (37 °C).

In the case of UGAAAGCAAUAUUACGCUCU, the “self-splicing fitness (ln)” value was -2.48 ± 0.17 (30 °C) and -1.37 ± 0.18 (37 °C). Regarding UGAAAGCAAUAUUACGGAAC, the “self-splicing fitness (ln)” value was -2.58 ± 0.22 (30 °C) and -0.53 ± 0.25 (37 °C).

Consider UGAAAGCAAUAUUACGGAGG, for which the “self-splicing fitness (ln)” value (30 °C) is -3.75 ± 0.2 and the “self-splicing fitness (ln)” value (37 °C) is -2.72 ± 0.26. In the case of UGAAAGCAAUAUUACGGCAC, the “self-splicing fitness (ln)” value was -3.23 ± 0.16 (30 °C) and -1.48 ± 0.14 (37 °C).

With UGAAAGCAAUAUUACGGCCA, the “self-splicing fitness (ln)” value is, setting by setting: (30 °C) -0.0769 ± 0.21; (37 °C) 0.0533 ± 0.28. On the same counts, the results for UGAAAGCAAUAUUACGGCUA are 0.376 ± 0.092 and 0.259 ± 0.11. On the same counts, the results for UGAAAGCAAUAUUACGUAUC are -3.86 ± 0.28 and -2.38 ± 0.25. On the same counts, the results for UGAAAGCAAUAUUACGUGAU are -0.954 ± 0.077 and -1.45 ± 0.13. With UGAAAGCAAUAUUACGUGCC, the “self-splicing fitness (ln)” value runs as follows: (30 °C) -0.125 ± 0.12; (37 °C) -0.826 ± 0.15. The matching figures for UGAAAGCAAUAUUACGUUAA: -1.45 ± 0.089 and -0.938 ± 0.09. The matching figures for UGAAAGCAAUAUUACGUUAG: -1.1 ± 0.086 and -0.448 ± 0.096. On the same counts, the results for UGAAAGCAAUAUUACGUUCU are -1.37 ± 0.11 and -0.484 ± 0.1. In the case of UGAAAGCAAUAUUACGUUGA, the “self-splicing fitness (ln)” value is, setting by setting: (30 °C) -3.13 ± 0.17; (37 °C) -1.23 ± 0.15.

Consider UGACAGCAAUAUUACGAAGA, for which the “self-splicing fitness (ln)” value is -3.28 ± 0.27 (30 °C) and -0.756 ± 0.16 (37 °C). On the same counts, the results for UGACAGCAAUAUUACGAGCA are -0.681 ± 0.051 and 0.236 ± 0.064. On the same counts, the results for UGACAGCAAUAUUACGAGGG are -3.73 ± 0.44 and -2.11 ± 0.35.
